Like-named read-outs stand apart in the source and are kept apart here.
B1: hTET: Pyrococcus horikoshii TET aminopeptidase, SEQ ID NO: 59 (protein, listed as Pyrococcus horikoshii)
chain: MEVRNMVDYELLKKVVEAPGVSGYEFLGIRDVVIEEIKDYVDEVKVDKLGNVIAHKKGEGPKVMIAAHMDQIGLMVTHIEKNGFLRVAPIGGVDPKTLIAQRFKVWIDKGKFIYGVGASVPPHIQKPEDRKKAPDWDQIFIDIGAESKEEAEDMGVKIGTVITWDGRLERLGKHRFVSIAFDDRIAVYTILEVAKQLKDAKADVYFVATVQEEVGLRGARTSAFGIEPDYGFAIDVTIAADIPGTPEHKQVTHLGKGTAIKIMDRSVICHPTIVRWLEELAKKHEIPYQLEILLGGGTDAGAIHLTKAGVPTGALSVPARYIHSNTEVVDERDVDATVELMTKALENIHELKI
B2: Rat APN (protein)
chain: KPWNQYRLPKTLIPDSYQVTLRPYLTPNEQGLYIFKGSSTVRFTCNETTNVIIIHSKKLNYTNKGNHRVALRALGDTPAPNIDTTELVERTEYLVVHLQGSLVKGHQYEMDSEFQGELADDLAGFYRSEYMEGGNKKVVATTQMQAADARKSFPCFDEPAMKASFNITLIHPNNLTALSNMLPKDSRTLQEDPSWNVTEFHPTPKMSTYLLAYIVSEFKYVEAVSPNRVQIRIWARPSAIDEGHGDYALQVTGPILNFFAQHYNTAYPLEKSDQIALPDFNAGAMENWGLVTYRESALVFDPQSSSISNKERVVTVIAHELAHQWFGNLVTVDWWNDLWLNEGFASYVEFLGADYAEPTWNLKDLIVLNDVYRVMAVDALASSHPLSSPANEVNTPAQISELFDSITYSKGASVLRMLSSFLTEDLFKKGLSSYLHTFQYSNTIYLDLWEHLQQAVDSQTAIKLPASVSTIMDRWILQMGFPVITVNTSTGEIYQEHFLLDPTSKPTRPSDFNYLWIVPIPYLKNGKEDHYWLETEKNQSAEFQTSSNEWLLLNINVTGYYQVNYDENNWRKIQNQLQTDLSVIPVINRAQIIHDSFNLASAGKLSITLPLSNTLFLASETEYMPWEAALSSLNYFKLMFDRSEVYGPMKRYLKKQVTPLFAYFKIKTNNWLDRPPTLMEQYNEINAISTACSSGLEECRDLVVGLYSQWMNNSDNNPIHPNLRSTVYCNAIAFGGEEEWNFAWEQFRKATLVNEADKLRSALACSNEVWILNRYLSYTLNPDYIRKQDATSTIVSIANNVVGQTLVWDFVRSNWKKLFEDYGGGSFSFANLIQGVTRRFSSEFELQQLEQFKEDNSATGFGSGTRALEQALEKTKANIKWVKENKDVVLKWFTENS
B3: PfuTET: Pfu aminopeptidase I (protein)
chain: MVDWELMKKIIESPGVSGYEHLGIRDLVVDILKDVADEVKIDKLGNVIAHFKGSAPKVMVAAHMDKIGLMVNHIDKDGYLRVVPIGGVLPETLIAQKIRFFTEKGERYGVVGVLPPHLRREAKDQGGKIDWDSIIVDVGASSREEAEEMGFRIGTIGEFAPNFTRLSEHRFATPYLDDRICLYAMIEAARQLGEHEADIYIVASVQEEIGLRGARVASFAIDPEVGIAMDVTFAKQPNDKGKIVPELGKGPVMDVGPNINPKLRQFADEVAKKYEIPLQVEPSPRPTGTDANVMQINREGVATAVLSIPIRYMHSQVELADARDVDNTIKLAKALLEELKPMDFTPLE

Tested on: peptide substrates
Format: biochemical
[1] = substrate AAPFQQ (SEQ ID NO: 118), 1 mM Peptide, 1 μM enzyme, 10 mM Mg(OAc)2, 50 mM MOPS pH 8, 60 mM KOAc, RT/0.5 hr
[2] = substrate CCPFQQ (SEQ ID NO: 144), 1 mM Peptide, 1 μM enzyme, 10 mM Mg(OAc)2, 50 mM MOPS pH 8, 60 mM KOAc, RT/0.5 hr
[3] = substrate DDPFQQ (SEQ ID NO: 126), 1 mM Peptide, 1 μM enzyme, 10 mM Mg(OAc)2, 50 mM MOPS pH 8, 60 mM KOAc, RT/0.5 hr
[4] = substrate EEPFQQ (SEQ ID NO: 128), 1 mM Peptide, 1 uM enzyme, 10 mM Mg(OAc)2, 50 mM MOPS pH 8, 60 mM KOAc, RT/0.5 hr
[5] = substrate FFPFQQ (SEQ ID NO: 124), 1 mM Peptide, 1 μM enzyme, 10 mM Mg(OAc)2, 50 mM MOPS pH 8, 60 mM KOAc, RT/0.5 hr
[6] = substrate GGPFQQ (SEQ ID NO: 152), 1 mM Peptide, 1 uM enzyme, 10 mM Mg(OAc)2, 50 mM MOPS pH 8, 60 mM KOAc, RT/0.5 hr
[7] = substrate HHPFQQ (SEQ ID NO: 154), 1 mM Peptide, 1 uM enzyme, 10 mM Mg(OAc)2, 50 mM MOPS pH 8, 60 mM KOAc, RT/0.5 hr
[8] = substrate IIPFQQ (SEQ ID NO: 136), 1 mM Peptide, 1 μM enzyme, 10 mM Mg(OAc)2, 50 mM MOPS pH 8, 60 mM KOAc, RT/0.5 hr
[9] = substrate KKPFQQ (SEQ ID NO: 120), 1 mM Peptide, 1 uM enzyme, 10 mM Mg(OAc)2, 50 mM MOPS pH 8, 60 mM KOAc, RT/0.5 hr
[10] = substrate LLPFQQ (SEQ ID NO: 138), 1 mM Peptide, 1 μM enzyme, 10 mM Mg(OAc)2, 50 mM MOPS pH 8, 60 mM KOAc, RT/0.5 hr
[11] = substrate MMPFQQ (SEQ ID NO: 148), 1 mM Peptide, 1 uM enzyme, 10 mM Mg(OAc)2, 50 mM MOPS pH 8, 60 mM KOAc, RT/0.5 hr
[12] = substrate NNPFQQ (SEQ ID NO: 130), 1 mM Peptide, 1 μM enzyme, 10 mM Mg(OAc)2, 50 mM MOPS pH 8, 60 mM KOAc, RT/0.5 hr
[13] = substrate PPPFQQ (SEQ ID NO: 150), 1 mM Peptide, 1 uM enzyme, 10 mM Mg(OAc)2, 50 mM MOPS pH 8, 60 mM KOAc, RT/0.5 hr
[14] = substrate QQPFQQ (SEQ ID NO: 132), 1 mM Peptide, 1 μM enzyme, 10 mM Mg(OAc)2, 50 mM MOPS pH 8, 60 mM KOAc, RT/0.5 hr
[15] = substrate RRPFQQ (SEQ ID NO: 116), 1 mM Peptide, 1 uM enzyme, 10 mM Mg(OAc)2, 50 mM MOPS pH 8, 60 mM KOAc, RT/0.5 hr
[16] = substrate SSPFQQ (SEQ ID NO: 140), 1 mM Peptide, 1 μM enzyme, 10 mM Mg(OAc)2, 50 mM MOPS pH 8, 60 mM KOAc, RT/0.5 hr
[17] = substrate TTPFQQ (SEQ ID NO: 142), 1 mM Peptide, 1 μM enzyme, 10 mM Mg(OAc)2, 50 mM MOPS pH 8, 60 mM KOAc, RT/0.5 hr
[18] = substrate VVPFQQ (SEQ ID NO: 134), 1 mM Peptide, 1 μM enzyme, 10 mM Mg(OAc)2, 50 mM MOPS pH 8, 60 mM KOAc, RT/0.5 hr
[19] = substrate WWPFQQ (SEQ ID NO: 146), 1 mM Peptide, 1 μM enzyme, 10 mM Mg(OAc)2, 50 mM MOPS pH 8, 60 mM KOAc, RT/0.5 hr
[20] = substrate YYPFQQ (SEQ ID NO: 122), 1 mM Peptide, 1 μM enzyme, 10 mM Mg(OAc)2, 50 mM MOPS pH 8, 60 mM KOAc, RT/0.5 hr

| Molecule | HPLC Assay Conv [1] [%] | HPLC Assay Conv [2] [%] | HPLC Assay Conv [3] [%] | HPLC Assay Conv [4] [%] | HPLC Assay Conv [5] [%] | HPLC Assay Conv [6] [%] | HPLC Assay Conv [7] [%] | HPLC Assay Conv [8] [%] | HPLC Assay Conv [9] [%] | HPLC Assay Conv [10] [%] | HPLC Assay Conv [11] [%] | HPLC Assay Conv [12] [%] | HPLC Assay Conv [13] [%] | HPLC Assay Conv [14] [%] | HPLC Assay Conv [15] [%] | HPLC Assay Conv [16] [%] | HPLC Assay Conv [17] [%] | HPLC Assay Conv [18] [%] | HPLC Assay Conv [19] [%] | HPLC Assay Conv [20] [%] | other results |
| --- | --- | --- | --- | --- | --- | --- | --- | --- | --- | --- | --- | --- | --- | --- | --- | --- | --- | --- | --- | --- | --- |
| B1 | 100 | 32 | 4 | 0 | 100 | 33 | 26 | 100 | 0 | 100 | 0 | 69 | 0 | 63 | 0 | 100 | 100 | 100 | 4 | 99 | HPLC Assay Conv (substrate […]1 (SEQ ID NO: 156), 1 mM Peptide, 1.0 μM enzyme, 10 mM Mg(OAc)2, 50 mM MOPS pH 8, 60 mM KOAc, RT/0.5 hr): 100%; HPLC Assay Conv (substrate […], 200 μM Peptide, 2 μM, 37° C. (rest of the wrapped entry lies below the rows shown)): 55%; HPLC Assay Conv (substrate […]{LYSN3}NH2 (SEQ ID NO: 107), 200 μM Peptide, 2 μM enzyme, 10 mM MgCl2, 50 mM MOPS pH 8.0, 37° C./1 hr): 55%; HPLC Assay Conv (substrate […]{LYSN3}NH2 (SEQ ID NO: 109), 200 μM Peptide, 4 μM enzyme, 10 mM MgCl2, 50 mM MOPS pH 8.0, 37° C./1 hr): 100% |
| B2 | – | – | – | – | – | – | – | – | – | – | – | – | – | – | – | – | – | – | – | – | HPLC Assay Conv (substrate AAPAAP{LYSN3}NH2 (SEQ ID NO: 98), 1 mM peptide, 50 nM enzyme, 2.5 mM ZnCl2, 25 mM Tris pH 8.0, 30° C./1 hr): 100%; HPLC Assay Conv (substrate KKMKKMLys-Triazole-PEG4 Biotin (SEQ ID NO: 89), 1 mM peptide, 150 nM enzyme, 2.5 mM ZnCl2 25 mM Tris pH 8.0, 30° C./1 hr): >90%; HPLC Assay Conv (substrate KKMKKM{LYSN3}NH2 (SEQ ID NO: 71), 1 mM peptide, 50 nM enzyme, 2.5 mM ZnCl2, 25 mM Tris pH 8.0, 30° C./1 hr): 50%; HPLC Assay Conv (substrate KKPKKP{LYSN3}NH2 (SEQ ID NO: 100), 1 mM peptide, 50 nM enzyme, 2.5 mM ZnCl2, 25 mM Tris pH 8.0, 30° C./1 hr): 85%; HPLC Assay Conv (substrate QP5-Atto649N ([…]{LYSN3}NH2) (SEQ ID NO: 106), 37 μM Peptide, 100 nM Enzyme, 2.5 mM ZnCl2, 25 mM Tris pH 8.0, 37° C./0.5 hr): >95%; HPLC Assay Conv (substrate RRPRRP{LYSN3}NH2 (SEQ ID NO: 96), 1 mM peptide, 50 nM enzyme, 2.5 mM ZnCl2, 25 mM Tris pH 8.0, 30° C./1 hr): 55% |
| B3 | 100 | 72 | 86 | 93 | 65 | 0 | 19 | 0 | 100 | 99 | 100 | 81 | 0 | 100 | 100 | 90 | 100 | 0 | 37 | 100 | – |
